Positions count from the first letter of the chain named.
B1: anti-TIM-1 mAb 1.29 (antibody, human IgG2, V domains shown)
VH: QVQLQESGPGLVKPSETLSLTCTVSGGSVSSGGYYWSWIRQPPGKGLEWIGFIYYTGSTNYNPSLKSRVSISVDTSKNQFSLKLSSVTAADAAVYYCARDYDWSFHFDYWGQGTLVTVSS
VL: DIQMTQSPSSLSASIGDRVTITCRASQGIRNDLGWYQQKPGKAPKRLIYAASSLQSGVPSRFSGSGSGTEFTLTISSLQPEDFATYYCLQHNSYPLTFGGGTKVEIKR
B2: anti-TIM-1 mAb 1.37 (antibody, human IgG2, V domains shown)
VH: EVQLVESGGGLVQPGGSLRLSCAASGFTFTNYWMSWVRQAPGKGLEWVANIQQDGSEKYYVDSVRGRFTISRDNAKNSLYLQMNSLRAEDSAVYYCARWDYWGQGTLVTVSS
VL: DIVMTQTPLSSTVILGQPASISCRSSQSLVHSDGNTYLNWLQQRPGQPPRLLIYMISNRFSGVPDRFSGSGAGTDFTLKISRVEAEDVGVYYCMQATESPQTFGQGTKVEIKR
B3: anti-TIM-1 mAb 2.61 (antibody, human IgG4, V domains shown)
VH: QVQLVEAGGGVVQPGRSLRLSCAASGFTFRSYGMHWVRQAPGKGLKWVAVIWYDGSNKYYTDSVKGRFTISRDNSKNTLYLQMNSLRAEDTAVYYCVRDYYDNSRHHWGFDYWGQGTLVTVSS
VL: B1 VL with L11R, S12C, I15V, G34A, G66R, T85A, L96P, T97S, G100Q, V104L
B4: anti-TIM-1 mAb 2.70 (antibody, V domains shown)
VH: B3 VH with A7S, T28I, R30S, S31R, Y59L, T61A, V97A
VL: DIVMTQTPLSLPVTPGEPASISCRSSRSLLDSDDGNTYLDWYLQKPGQSPQLLIYTLSYRASGVPDRFSGSGSGTDFTLKISRVEAEDVGVYYCMQRVEFPITFGQGTRLEIKR

The binders below were run against TIM-1 antigen (soluble extracellular domain of TIM-1, CG57008-02, with a V5-HIS tag) (human) (UniProt Q96D42) (assay: BIAcore 2000, mAb captured on goat anti-human surface, TIM-1 antigen injected, 25 C).
In the case of B1, the Kd is reported as 3.64 nM.
B2 showed a Kd of 2.78 nM.
For B3, the Kd was 1 nM.
In the case of B4, the Kd is reported as 2.71 nM.

Source: patent US20050084449A1
